The source of these data is publication PMC3829318.

Series [1] is described as follows: (carboxymethyl)cellulose 4M hydrolysis, reducing sugar assay. Conditions: control: rKOR1 WT.
Series [2] is described as follows: activity after preincubation at 30 °C. The note with it: glycan lost; control: rKOR1 WT.
Series [3] in a line: Golgi processing of remaining glycopeptides, LC-ESI-MS, N. benthamiana. Conditions: glycan lost; control: wild-type KOR1-Fc-GFP.
Series [4] is described as follows: anti-KOR1 immunoblot of Sf21 culture medium. The note with it: control: rKOR1 WT.

B1: KORRIGAN1 (KOR1): N345Q (protein)
parent chain: MYGRDPWGGPLEINTADSATDDDRSRNLNDLDRAALSRPLDETQQSWLLGPTEQKKKKYVDLGCIIVSRKIFVWTVGTLVAAALLAGFITLIVKTVPRHHPKTPPPDNYTIALHKALKFFNAQKSGKLPKHNNVSWRGNSGLQDGKGETGSFYKDLVGGYYDAGDAIKFNFPMAYAMTMLSWSVIEYSAKYEAAGELTHVKELIKWGTDYFLKTFNSTADSIDDLVSQVGSGNTDDGNTDPNDHYCWMRPEDMDYKRPVTTCNGGCSDLAAEMAAALASASIVFKDNKEYSKKLVHGAKVVYQFGRTRRGRYSAGTAESSKFYNSSMYWDEFIWGGAWMYYATGNVTYLNLITQPTMAKHAGAFWGGPYYGVFSWDNKLAGAQLLLSRLRLFLSPGYPYEEILRTFHNQTSIVMCSYLPIFNKFNRTNGGLIELNHGAPQPLQYSVNAAFLATLYSDYLDAADTPGWYCGPNFYSTSVLRDFARSQIDYILGKNPRKMSYVVGFGTKYPRHVHHRGASIPKNKVKYNCKGGWKWRDSKKPNPNTIEGAMVAGPDKRDGYRDVRMNYNYTEPTLAGNAGLVAALVALSGEEEATGKIDKNTIFSAVPPLFPTPPPPPAPWKP
For B1, the “enzymatic_activity, other: specific activity” value (from here on “enzymatic_activity, other”) in series [1] (glycan lost) is on record as “decreases, 271 ± 25 vs 374 ± 18”. Moreover, in series [2], the “stability_or_folding, other: residual activity after 120 min” value is “no change, at least 90 vs at least 90”. Besides, the localisation_or_trafficking entry in series [3] is recorded as “no change”. Further, in series [4] (glycan lost), the expression_or_secretion result was “no change”.

B2: KORRIGAN1 (KOR1): N425Q (protein)
parent chain: MYGRDPWGGPLEINTADSATDDDRSRNLNDLDRAALSRPLDETQQSWLLGPTEQKKKKYVDLGCIIVSRKIFVWTVGTLVAAALLAGFITLIVKTVPRHHPKTPPPDNYTIALHKALKFFNAQKSGKLPKHNNVSWRGNSGLQDGKGETGSFYKDLVGGYYDAGDAIKFNFPMAYAMTMLSWSVIEYSAKYEAAGELTHVKELIKWGTDYFLKTFNSTADSIDDLVSQVGSGNTDDGNTDPNDHYCWMRPEDMDYKRPVTTCNGGCSDLAAEMAAALASASIVFKDNKEYSKKLVHGAKVVYQFGRTRRGRYSAGTAESSKFYNSSMYWDEFIWGGAWMYYATGNVTYLNLITQPTMAKHAGAFWGGPYYGVFSWDNKLAGAQLLLSRLRLFLSPGYPYEEILRTFHNQTSIVMCSYLPIFNKFNRTNGGLIELNHGAPQPLQYSVNAAFLATLYSDYLDAADTPGWYCGPNFYSTSVLRDFARSQIDYILGKNPRKMSYVVGFGTKYPRHVHHRGASIPKNKVKYNCKGGWKWRDSKKPNPNTIEGAMVAGPDKRDGYRDVRMNYNYTEPTLAGNAGLVAALVALSGEEEATGKIDKNTIFSAVPPLFPTPPPPPAPWKP
For B2, in series [1] (glycan lost), the “enzymatic_activity, other” value was “no change, 394 ± 34 vs 374 ± 18”. In series [2], the “stability_or_folding, other: residual activity after 120 min” value is on record as “decreases, 69 vs at least 90”. Moreover, in series [3], the localisation_or_trafficking result was “no change”. In series [4] (glycan lost), the expression_or_secretion entry is “no change”.

B3: KORRIGAN1 (KOR1): N216Q/N324Q/N345Q (protein)
parent chain: MYGRDPWGGPLEINTADSATDDDRSRNLNDLDRAALSRPLDETQQSWLLGPTEQKKKKYVDLGCIIVSRKIFVWTVGTLVAAALLAGFITLIVKTVPRHHPKTPPPDNYTIALHKALKFFNAQKSGKLPKHNNVSWRGNSGLQDGKGETGSFYKDLVGGYYDAGDAIKFNFPMAYAMTMLSWSVIEYSAKYEAAGELTHVKELIKWGTDYFLKTFNSTADSIDDLVSQVGSGNTDDGNTDPNDHYCWMRPEDMDYKRPVTTCNGGCSDLAAEMAAALASASIVFKDNKEYSKKLVHGAKVVYQFGRTRRGRYSAGTAESSKFYNSSMYWDEFIWGGAWMYYATGNVTYLNLITQPTMAKHAGAFWGGPYYGVFSWDNKLAGAQLLLSRLRLFLSPGYPYEEILRTFHNQTSIVMCSYLPIFNKFNRTNGGLIELNHGAPQPLQYSVNAAFLATLYSDYLDAADTPGWYCGPNFYSTSVLRDFARSQIDYILGKNPRKMSYVVGFGTKYPRHVHHRGASIPKNKVKYNCKGGWKWRDSKKPNPNTIEGAMVAGPDKRDGYRDVRMNYNYTEPTLAGNAGLVAALVALSGEEEATGKIDKNTIFSAVPPLFPTPPPPPAPWKP
Consider B3, for which the localisation_or_trafficking result in series [3] is recorded as “no change”.

B4: KORRIGAN1 (KOR1): N567Q (protein)
parent chain: MYGRDPWGGPLEINTADSATDDDRSRNLNDLDRAALSRPLDETQQSWLLGPTEQKKKKYVDLGCIIVSRKIFVWTVGTLVAAALLAGFITLIVKTVPRHHPKTPPPDNYTIALHKALKFFNAQKSGKLPKHNNVSWRGNSGLQDGKGETGSFYKDLVGGYYDAGDAIKFNFPMAYAMTMLSWSVIEYSAKYEAAGELTHVKELIKWGTDYFLKTFNSTADSIDDLVSQVGSGNTDDGNTDPNDHYCWMRPEDMDYKRPVTTCNGGCSDLAAEMAAALASASIVFKDNKEYSKKLVHGAKVVYQFGRTRRGRYSAGTAESSKFYNSSMYWDEFIWGGAWMYYATGNVTYLNLITQPTMAKHAGAFWGGPYYGVFSWDNKLAGAQLLLSRLRLFLSPGYPYEEILRTFHNQTSIVMCSYLPIFNKFNRTNGGLIELNHGAPQPLQYSVNAAFLATLYSDYLDAADTPGWYCGPNFYSTSVLRDFARSQIDYILGKNPRKMSYVVGFGTKYPRHVHHRGASIPKNKVKYNCKGGWKWRDSKKPNPNTIEGAMVAGPDKRDGYRDVRMNYNYTEPTLAGNAGLVAALVALSGEEEATGKIDKNTIFSAVPPLFPTPPPPPAPWKP
As to B4, in series [2], the “stability_or_folding, other: residual activity after 120 min” value is listed as “no change, at least 90 vs at least 90”. In addition, the localisation_or_trafficking result in series [3] is listed as “no change”. Moreover, the expression_or_secretion result in series [4] (glycan lost) is given as “decreases”.

B5: KORRIGAN1 (KOR1): kifunensine (rKOR1 KIF) (protein)
parent chain: MYGRDPWGGPLEINTADSATDDDRSRNLNDLDRAALSRPLDETQQSWLLGPTEQKKKKYVDLGCIIVSRKIFVWTVGTLVAAALLAGFITLIVKTVPRHHPKTPPPDNYTIALHKALKFFNAQKSGKLPKHNNVSWRGNSGLQDGKGETGSFYKDLVGGYYDAGDAIKFNFPMAYAMTMLSWSVIEYSAKYEAAGELTHVKELIKWGTDYFLKTFNSTADSIDDLVSQVGSGNTDDGNTDPNDHYCWMRPEDMDYKRPVTTCNGGCSDLAAEMAAALASASIVFKDNKEYSKKLVHGAKVVYQFGRTRRGRYSAGTAESSKFYNSSMYWDEFIWGGAWMYYATGNVTYLNLITQPTMAKHAGAFWGGPYYGVFSWDNKLAGAQLLLSRLRLFLSPGYPYEEILRTFHNQTSIVMCSYLPIFNKFNRTNGGLIELNHGAPQPLQYSVNAAFLATLYSDYLDAADTPGWYCGPNFYSTSVLRDFARSQIDYILGKNPRKMSYVVGFGTKYPRHVHHRGASIPKNKVKYNCKGGWKWRDSKKPNPNTIEGAMVAGPDKRDGYRDVRMNYNYTEPTLAGNAGLVAALVALSGEEEATGKIDKNTIFSAVPPLFPTPPPPPAPWKP
On to B5, for which the “enzymatic_activity, other” value in series [1] (glycan changed form) is “no change, 402 ± 40 vs 374 ± 18”. In addition, in series [4] (glycan changed form), the expression_or_secretion result is “no change”.

B6: KORRIGAN1 (KOR1): N408Q (protein)
parent chain: MYGRDPWGGPLEINTADSATDDDRSRNLNDLDRAALSRPLDETQQSWLLGPTEQKKKKYVDLGCIIVSRKIFVWTVGTLVAAALLAGFITLIVKTVPRHHPKTPPPDNYTIALHKALKFFNAQKSGKLPKHNNVSWRGNSGLQDGKGETGSFYKDLVGGYYDAGDAIKFNFPMAYAMTMLSWSVIEYSAKYEAAGELTHVKELIKWGTDYFLKTFNSTADSIDDLVSQVGSGNTDDGNTDPNDHYCWMRPEDMDYKRPVTTCNGGCSDLAAEMAAALASASIVFKDNKEYSKKLVHGAKVVYQFGRTRRGRYSAGTAESSKFYNSSMYWDEFIWGGAWMYYATGNVTYLNLITQPTMAKHAGAFWGGPYYGVFSWDNKLAGAQLLLSRLRLFLSPGYPYEEILRTFHNQTSIVMCSYLPIFNKFNRTNGGLIELNHGAPQPLQYSVNAAFLATLYSDYLDAADTPGWYCGPNFYSTSVLRDFARSQIDYILGKNPRKMSYVVGFGTKYPRHVHHRGASIPKNKVKYNCKGGWKWRDSKKPNPNTIEGAMVAGPDKRDGYRDVRMNYNYTEPTLAGNAGLVAALVALSGEEEATGKIDKNTIFSAVPPLFPTPPPPPAPWKP
For B6, the “enzymatic_activity, other” value in series [1] (glycan lost) is listed as “no change, 379 ± 18 vs 374 ± 18”. Besides, the “stability_or_folding, other: residual activity after 120 min” value in series [2] is given as “no change, at least 90 vs at least 90”. The localisation_or_trafficking entry in series [3] is given as “no change”. Moreover, the expression_or_secretion entry in series [4] (glycan lost) is recorded as “no change”.

B7: KORRIGAN1 (KOR1): N324Q (protein)
parent chain: MYGRDPWGGPLEINTADSATDDDRSRNLNDLDRAALSRPLDETQQSWLLGPTEQKKKKYVDLGCIIVSRKIFVWTVGTLVAAALLAGFITLIVKTVPRHHPKTPPPDNYTIALHKALKFFNAQKSGKLPKHNNVSWRGNSGLQDGKGETGSFYKDLVGGYYDAGDAIKFNFPMAYAMTMLSWSVIEYSAKYEAAGELTHVKELIKWGTDYFLKTFNSTADSIDDLVSQVGSGNTDDGNTDPNDHYCWMRPEDMDYKRPVTTCNGGCSDLAAEMAAALASASIVFKDNKEYSKKLVHGAKVVYQFGRTRRGRYSAGTAESSKFYNSSMYWDEFIWGGAWMYYATGNVTYLNLITQPTMAKHAGAFWGGPYYGVFSWDNKLAGAQLLLSRLRLFLSPGYPYEEILRTFHNQTSIVMCSYLPIFNKFNRTNGGLIELNHGAPQPLQYSVNAAFLATLYSDYLDAADTPGWYCGPNFYSTSVLRDFARSQIDYILGKNPRKMSYVVGFGTKYPRHVHHRGASIPKNKVKYNCKGGWKWRDSKKPNPNTIEGAMVAGPDKRDGYRDVRMNYNYTEPTLAGNAGLVAALVALSGEEEATGKIDKNTIFSAVPPLFPTPPPPPAPWKP
Take B7: in series [1] (glycan lost), the “enzymatic_activity, other” value is “decreases, 307 ± 8 vs 374 ± 18”. The “stability_or_folding, other: residual activity after 120 min” value in series [2] is on record as “no change, at least 90 vs at least 90”. For the same protein, the localisation_or_trafficking result in series [3] is recorded as “no change”. Further, the expression_or_secretion entry in series [4] (glycan lost) was “no change”.

B8: KORRIGAN1 (KOR1): N216Q (protein)
parent chain: MYGRDPWGGPLEINTADSATDDDRSRNLNDLDRAALSRPLDETQQSWLLGPTEQKKKKYVDLGCIIVSRKIFVWTVGTLVAAALLAGFITLIVKTVPRHHPKTPPPDNYTIALHKALKFFNAQKSGKLPKHNNVSWRGNSGLQDGKGETGSFYKDLVGGYYDAGDAIKFNFPMAYAMTMLSWSVIEYSAKYEAAGELTHVKELIKWGTDYFLKTFNSTADSIDDLVSQVGSGNTDDGNTDPNDHYCWMRPEDMDYKRPVTTCNGGCSDLAAEMAAALASASIVFKDNKEYSKKLVHGAKVVYQFGRTRRGRYSAGTAESSKFYNSSMYWDEFIWGGAWMYYATGNVTYLNLITQPTMAKHAGAFWGGPYYGVFSWDNKLAGAQLLLSRLRLFLSPGYPYEEILRTFHNQTSIVMCSYLPIFNKFNRTNGGLIELNHGAPQPLQYSVNAAFLATLYSDYLDAADTPGWYCGPNFYSTSVLRDFARSQIDYILGKNPRKMSYVVGFGTKYPRHVHHRGASIPKNKVKYNCKGGWKWRDSKKPNPNTIEGAMVAGPDKRDGYRDVRMNYNYTEPTLAGNAGLVAALVALSGEEEATGKIDKNTIFSAVPPLFPTPPPPPAPWKP
With B8, the “enzymatic_activity, other” value in series [1] (glycan lost) is recorded as “decreases, 244 ± 25 vs 374 ± 18”. The “stability_or_folding, other: residual activity after 120 min” value in series [2] is “no change, at least 90 vs at least 90”. In series [3], the localisation_or_trafficking result is on record as “no change”. The expression_or_secretion result in series [4] (glycan lost) was “no change”.
